Measurements reported in the nanobody polyreactivity screen of Harvey et al. (2022).

Experiment: yeast display, Sf9 membrane polyspecificity reagent, FACS + sequencing; frameworks hold sequencing errors
Outline: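 A nanobody's polyreactivity label depends on the gate it was sorted from. Yeast display cells were stained with 10% biotinylated, detergent-solubilized Sf9 membrane reagent for 1 hour at 4 °C, enriched on streptavidin microbeads and sorted by FACS. The low and high (top ~1%) gates were set on anti-HA fluorescence for expression and streptavidin fluorescence for reagent binding.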

| Sequence | polyreactivity (PSR sort gate) |
| --- | --- |
| QVQLVESGGGLVQAGGSLRLSCAASGFTFIGYAMGWYRQAPGKERELVAAITISGGSTYYADSVKGRFTISRDNAKNTVYLQMNSLKPEDTAVYYCNVYRLAAFYSLRGYRYDYWGQGTQVTVSS | high polyreactivity |
| QVQLVESGGRLVQAGGRLRLSCAASGFIVYFNAMGWYIQAPGKERELVAAIRISGGSTYYADSVKGRFTISRDNAKNTVYLQMNSLKPEDTAVYYCATAPENYVSVGYDYWGQGTQVTVSS | low polyreactivity |
| QVQLVESGGGLVQAGGSLRLSCAATGLIFSRNAMGWYRQAPGKERELVAAISTGGSTYYADSVKGRFTISRDNAKITVYLQMNSLKPEDTAVYYCAAAPGYIYEYWGQGTQVTVSS | low polyreactivity |
| QVQLVESGGGLVQAGGSLRLSCAASGFIFYRNAMGWYRQAPGKERELVAGISRSGTRTYYADSVKGRFTISRDYSKNTVYLQMNSLKPEDTAVYYCAADRSLGYDYWGQGTQVTVSS | high polyreactivity |
| QVQLVESGGGLVQAGGILRLSCAASGRIFHRYTMGWYRQAPGKEREFVAAITTRAGSTYYADSVKGRFTISRDNAKYTVYLQMNSLKPEDTAVYYCNIRRHSLFGGTTTRYDYWGQGTQVTVSS | high polyreactivity |
| QGQLVESGGGLVQAGGSLRLSCAASGRTLVIKVMGWYRKAPGKERELVAAISFRSGNTYYADSVKGRFTISRDNAKITVYLQMNSLKPEDTAVYDCAAYTYRTSTTSSYYNWGQGTQVTVSS | high polyreactivity |
| QVQLVESGGGLVQAGGSLRLSFAASGFTFYYYTMGWYRQEPGKERELVAGISRRRGSTRYADSVKGRFTISRDNAKNTVYLQMNSLKPEDTAVYYCAAYPVVTEFDYWGQGTQVTVSS | high polyreactivity |
| QVQLVESGGGLVQAGGSLRLSCAASGFTSWDNDMGWYRQAPGKERELVAAISRGGSTNYADSVKGRFTISRDNAKNTVYLQMNSLNPEDTAVYYCAAEDWYQRYGYEYDYWGQGTQVTVSS | low polyreactivity |
| QVQLQESGGGLVQAGRSLRLSCEASGSISILQSMGWYRQAPGKEGELVAGINWGATTYYADSVKVRLTTSRDYAKNTVYLEMNSLKPEETAVYYCAVPTYYTYPLLYWGPGTQVTVSS | low polyreactivity |
| QVQLVESGGGLVQAGGSLRLSCAASGSTLSSYDMGWYRQAPGKERELVASISSGGSTYYADSVKGRFTISRDNAKNTVYLQMNSVKPEDTAVYYCLYWSYDWGQGTQVTVSS | low polyreactivity |
| QVQLVESGGGLVQAGGSLRLSSAPSGRTFLSNAMGWYRQAPGKERELVAAITWETDSTYYADSVKGLFTISRDNAKNTVYLQMNSLKPEDTAVYYCAARRYRPFTDYDGRTWWTRDYWGQGTQVTVSS | low polyreactivity |
| QVQLVESGGRLVQAGGSLRLSCAASGFTFVYYAMGWYRQAPGKERELVAAVSWSGGTTYYADSVKGRFTISRDNAKNTVLLQMNSLKPEDTAVYYCNVYPAYNYFDYDYWGQGTQVTVSS | high polyreactivity |
| QVQVVDSGGGLVQAGGSLRLSCAASGSIFYVYAMGWYRQAPGKVWEFVAAIRWFSGSTYYADSVKWRYTISRDNAKNTVYLQMNSLKPEDTAVYYCAARKYKQGRFKYDYWGQGTQVTVSS | high polyreactivity |
| QVQLVESGGGLVPAGGSLRLSCAASGSTGFNAMGWYRQAPGKERELVAAINYSDGSTYYADSVKGRFTISRDNAKNTVYLQMNSLKPEDTAVYYCNAGSSKDDSYYSYGYWGQGTQVTVSS | low polyreactivity |
| QVQLVESGGGLVQAGGSLRLSCAASGRTFWDYAMGWYRQAPGKEREFVAAINTSGGRTYYADSVKGRFTISRDNAKNTVYLQMNSLKPEDTAVYYCAARTRDRAYDSWGQGTQVTVSS | high polyreactivity |
| QVQLVESGGGLVQAGGSLRLSCAASGRTFKYYAMGWYRQAPGKERELVASISNGGNTNYADSVKGRFTISRDNAKNTVYLQMNSLKPEDTAVYYCAAGYVVATRYDYWGQGTQVTVSS | high polyreactivity |
| QVQLVESGGGLVQAGGSLRLSCAASGRTFRSYAMGWYRQAPGKERELVAAISWTGGSTYYADSVKGRFTISRDNAKNTVYLQMNSLKPEDTAVYYCAVRYRGYGYDWGQGTQVTVSS | high polyreactivity |
| QVQLEESGGGLVQAGGSLRLSCAASGNIFRDYAMGWYRQAPGKERELVAAISWSGGSTYYADSVKGRFTISRDNAKNTVYLQMNSLKPEDTAVYYCAARKPYSYNYWGQGTQVTVSS | high polyreactivity |
| QVQLVESGGGLVQAGGSIRLSCAASGSTFWPYAMGWYRQAPGKERELVAAITTSGGITYYADSVKGRFTISRDKAKITVYLQMNSVKPEDTAVYYCAADLSYHGYGYWGQGTQVTVSS | low polyreactivity |
| QVQLVESGGRLVQAGGSLRLSCAASGRTSVVHAMGWYRTAPGKERELVAAITSGGSTHYPDSVKGRFTISRDNAKNTVYLQMNSLKPEDTAVYYCNARDRRRTNLQDYWGQGTQVTVSS | low polyreactivity |
| QVHLVDSGGGLVQAGGSLRLTCSASGFTFRYYTMGWYIQAPGKERELVAVIRSTGSTNYADSVKGRFTISRDNAKNTVYLQMNSLKPEDTAVYYFNAARGWYNPPKYGSIGFDFWGQGTQVTVSS | high polyreactivity |

| Sequence | polyreactivity (PSR sort gate) |
| --- | --- |
| QVQLVESGGGLVQAGGSLRLSCAASGRTFPIYAMGWYRQAPGKERELVAAITGGGSTNYADSVKGRFTISRDNAKNTVYLQMNSLKPEDTAVYYCNARWFWYRPGGSRVDYWGQGTHVTVSS | high polyreactivity |
| QVQLVESGGGLDQAGGSLRSSCAASGRIFPSYAMGWYRQAPGKERELVAAISRSGGSTYYADSVKGRFTISRDNAKNTVDLQMICLKPEDTGVYYCAKQVYSGYSTRARSRYYEYYYWGQGNQVTVSS | high polyreactivity |
| QVQVVESGGGLVQAGGSLRLSCAASGRIFNRNAMGWYRQAPGKERELVAAITRGGRTNYADSVKGRFRISRDNAQNTVYLQMNSLKPEDTAVYYCAAAYYGSHGRYDYWGQGTQVTVSS | high polyreactivity |
| QVPLVESGGGLVQAGGSLRLSCAASGSIFYTNAMGWSIPAPGKERELVARLSSSSGRTYYADSVKGRFPISRDNAKNTVYLKMKSLIPDYTAVYYCAARYLLRRHTNMDYWGHGTQVTVSS | high polyreactivity |
| QVQLVESGGGIVQAGGSLRLSCAASGLSRGVNVMGLYRQAPGKERELVAAISGAGRTYYADSVKGRFTISRDNAKNTVFLQMNSLKPEDTAVYYCASVRRRLSLTYDYWGQGTQVTVSS | high polyreactivity |
| QVQLVESGGGLVQAGGSLRLSCAASGRMFYYYVMGWYRQAPGKESELVAVIDWSGGSTYYADSLKGRFTISRDTAKNTVYLQMNSLKPEDTAVYYCARVPYGNPNGNTPYGDNRYNSWGQGTQVTVSS | low polyreactivity |
| QVQLVESGGGLVQAGGSLRLSCAASGRIFPAYVMGWYRQAPGKERELVATIDNGGGTYYADSVKGRFTISRDNAKNTVYLQMNSLKPEDPAVYYCARDRHVRWGLKMDYWGQGTQVTVSS | low polyreactivity |
| QVQLVESGGGLVQAGGSLRLSCAASGSTFYIYAMGWYRQAPGKERELVARISGSGGSTYYADSVKGRFTISRDNAKNTVYLQMNSLKPEDTAVYYCAADDIYKYYQYYAFPYYRYDYWGQGSQVTVSS | low polyreactivity |
| QVQLVESGGGSVQAGGSLRLSCAASGRTFVRYAMGWYRQAPGKERELVAAITWSGGSTYYADSVKGRFTISRDNAKNTVYLQMNSLKPEDTAVFDCAAYPVQWGSLYDYWGQGTQVTVSS | high polyreactivity |
| QVQLVESGGGLVQAGGSLRLSCAASGYIFVRNAMGWYRQAPGKERELVAAISGSGGSTYYADSVKGRFTISRDNAKNSVYLQMNSLKPEDTAVYYCAARRYGYRYDQPYSNDYWGLGTQVTVSS | low polyreactivity |
| QVQLVESGGGLVQAGGSLRLSCAASGITFWYYAMGWSRQEPGKERELVAGISRSDSNTYYADSVKGRFTISRDNAKNTLYLQMNSLKPEDTAVYYCSAYYYRRRYGGKYDYWGQGTQVTVSS | high polyreactivity |
| QVQLVESGGGLVQAGGSLRLSCAASGSTLGFNAMGWYRQAPGKEREFVAGISASGSSTYYADSVKGRFTISRDNAKNTVYLQMNSLKPEDTAVYYCAARASGGPYWSRGKYWGQGTQVTVSS | high polyreactivity |
| QVQLVESGGGLVQAGGSLRLSCAASGLTFSLYAMGWYRQAPGKERELVAAISWTGGSTYYADSVKGRFTISRDNAKNTVYLQMNSLKPEDTAVYYCNARYTLFARYCYDYWGQGPQVTVSS | low polyreactivity |
| QVQLVESGGGLVQAGGSLRLSCAASGRTFHRNAMGWYRQAPGKERELVAAITGDGRTNYADSVKGRFTISRDNAKNTVYLQMNSLKPEDTAVYYCNRDNDYYRPGGRPVGIFDYWGQGTQVTVSS | low polyreactivity |
| QVQLVESGGGLVQAGGSLRLSCAASGITFYDKAMGWYREAPGKERELVAGISYDGDSTYADSVKGRFTISRDNAKNTVYLQMNSLKPEDTAVYYCAALGPYDWLWAGDYWGQGTQVTVSS | low polyreactivity |
| QVQLVESGGGLVQAGGSLRLSCAASGLIFYKNTMGWYRQAPGKERELVATITGRGGRTYYADSVKGRFTISRDIAKNSVYFQMNSLKPEDTAVYYCAARNQGRGYYWGQGTQVTVSS | high polyreactivity |
| QVQLVESVGGLVQAGGSLRLSCAASGSTIQGNSMGWYRQAHGKERELVAAISRSGGSTYADSVKGRFTISRDNAKNTVYLEMHSLKPEDTAVFYCAAYSGVGYLWFDYWGQGTQVTVSS | low polyreactivity |
| QVQLVESGGGLVQAGGSLRLSCAASGSTFYAYTMGWYRKAPGKERELVAGISRRGGTTYYADSVKGRFTISRDNAKNTVYLQMNSLKPEDTAVYYCAADKTKPQASEGYYAYYYWGQGTQVTVSS | low polyreactivity |
| QVQLVESGGGLVQAGGSLRLSCAASGRIFAFNAMGGYRQAPGKERELVAAITGRGGRTYYADSVKGRFTISRDHAKNTVYLQMNSLKPEDTAVYYCAAQRYINYDYWGQGTQVTVSS | high polyreactivity |
| QVQLVESGGGLVQAGGSLRLSCAASGSTFNYNAMGWYRPAPRKERELVAAITWNSGSTYYADSVKGRFTISRDNAKNTVYLQMNSLKQEDTAVYSCAADFTIPYWDAKFDYWGQGTQVTVSS | low polyreactivity |
